Assay results reported in JP2024517985A.

T1: CD300c抗原(11832-H08H、Sino Biological) (UniProt Q08708)
T1 sequence (looked up): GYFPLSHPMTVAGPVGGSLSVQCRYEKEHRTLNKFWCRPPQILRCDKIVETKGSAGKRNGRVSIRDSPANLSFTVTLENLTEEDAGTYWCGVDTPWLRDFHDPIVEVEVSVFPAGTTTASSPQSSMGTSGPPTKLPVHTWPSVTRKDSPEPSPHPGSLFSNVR

B1: 抗-CD300cモノクローナル抗体 CK3 (antibody, from another filing, V domains shown)
VH: RVQLLESGGGLVQPGGSLRLSCAASGFTFSSYAISWVRQAPGKGLEWVSATSGSGRATYYADSVKGRFTISRDNSKNTLYLQMNSLRAEDTAVYYCARDTWWEGYFDLWGQGTLVTVSS
VL: EIVLTQSPGTLSLSPGERATLSCQASHISTHLNWYQQKPGQAPRLLIYGASSRATGIPDRFSGSGSGTDFTLTISRLEPEDFAVYYCQQYNTYPPTFGQGTKVEIK
B2: 抗-CD300cモノクローナル抗体 SK15 (antibody, from another filing, V domains shown)
VH: RVQLLESGGGLVQPGGSLRLSCAASGFTFSSYAMHWVRQAPGKGLEWVSAINGSGGSTYYADSVKGRFTISRDNSKNTLYLQTNSLRAEDTAVYYCARGLQGFDYWGQGTLVTVSS
VL: EIVLTQSPGTLSLSPGERATLSCQASQDITNYLNWYQQKPGQAPRLLIYDASSLETGIPDRFSGSGSGTDFTLTISRLEPEDFAVYYCQQSYSTPITFGQGTKVEIK
B3: 抗-CD300cモノクローナル抗体 SK16 (antibody, from another filing, V domains shown)
VH: RVQLLESGGGLVQPGGSLRLSCAASGFTFSSYAMSWVRQAPGKGLEWVSAINGSGGSTLYADSVKGRFTISRDNSKNTLYLQMNSLRAEDTAVYYCARGVSGFDSWGQGTLVTVSS
VL: EIVLTQSPGTLSLSPGERATLSCRISQSISSYLNWYQQKPGQAPRLLIYDASLRATGIPDRFSGSGSGTDFTLTISRLEPEDFAVYYCQQSYKTPITFGQGTKVEIK

Target: T1, CD300c抗原(11832-H08H、Sino Biological)
Test: binding ELISA, CD300c antigen coated at 8 ug/mL, HRP anti-Fc IgG

EC50, > 0.2 µg/mL:
B1
B2
B3
